# From patent US20190032056, “STEM-LOOP COMPOSITIONS AND METHODS FOR INHIBITING FACTOR D” (Vitrisa Therapeutics, Inc., published 2019)
# Biological target: T1, complement Factor D (fD) in C1q-depleted human serum (Homo sapiens, UniProt P00746 SEQ:1-228)
# Test: inhibition; hemolysis
# Conditions: protein: extract; tags: endogenous fD, about 9.6 nM in 10% serum; hairpin
# T1 sequence (P00746 26-253): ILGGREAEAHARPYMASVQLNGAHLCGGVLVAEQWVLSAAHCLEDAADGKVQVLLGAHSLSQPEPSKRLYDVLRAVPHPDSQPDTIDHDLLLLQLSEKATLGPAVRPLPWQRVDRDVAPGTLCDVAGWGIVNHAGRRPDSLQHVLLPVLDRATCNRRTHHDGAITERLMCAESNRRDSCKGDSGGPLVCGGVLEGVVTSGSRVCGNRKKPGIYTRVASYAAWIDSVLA
row,Binder,IC50 [nM]
1,"CCGCCUUGCGAGUAAUGGCGUAGGCUCGAAGUUGGGCGG (ssRNA, 2'-F G; 2'-OMe A,C,U; 5' C6NH2; 3' idT) [Aptamer 35]",5.4
2,"CGCAUUGCUAGUAUUGGCUUAGGCUAGAAGUGUUGCG (ssRNA, 2'-F G; 2'-OMe A,C,U; 5' C6NH2; 3' idT) [Aptamer 40]",5.8
3,"CCGACUUGCCAGUAUUGGCUUAGGCUGGAAGUUUGUCGG (ssRNA, 2'-F G; 2'-OMe A,C,U; 5' C6NH2; 3' idT) [Aptamer 88]",< 10
4,"CCGACUUGCCAGUAUUGGCUCUGGCUGGAAGUUUGUCGG (ssRNA, 2'-F G; 2'-OMe A,C,U; 5' C6NH2; 3' idT) [Aptamer 72]",~100
5,"CCGACUUGCCAGUAUUAGCUUAGGCUGGAAGUUUGUCGG (ssRNA, 2'-F G; 2'-OMe A,C,U; 5' C6NH2; 3' idT) [Aptamer 64]",~100
6,"CCGACUUGCCAGUGUUGGCUUUGGCUGGAAGUUUGUCGG (ssRNA, 2'-F G; 2'-OMe A,C,U; 5' C6NH2; 3' idT) [Aptamer 36]",8.2
7,"CCGACUUGCCAGUAUUGGCGCAGGCUGGAAGUUUGUCGG (ssRNA, 2'-F G; 2'-OMe A,C,U; 5' C6NH2; 3' idT) [Aptamer 69]",< 10
8,"CCGACUUGCCAGUAUAGGCUCAGGCUGGAAGUUUGUCGG (ssRNA, 2'-F G; 2'-OMe A,C,U; 5' C6NH2; 3' idT) [Aptamer 62]",~10
9,"CCGACUUGCCAGUAUUGGCGAAGGCUGGAAGUUUGUCGG (ssRNA, 2'-F G; 2'-OMe A,C,U; 5' C6NH2; 3' idT) [Aptamer 71]",< 10
10,"CCGACUUGCCAGUAUUGGCCUAGGCUGGAAGUUUGUCGG (ssRNA, 2'-F G; 2'-OMe A,C,U; 5' C6NH2; 3' idT) [Aptamer 66]",~100
11,"CAGCCAUGCAAGUAUUGGCUUAGGCUUGAAGUUCGGCUG (ssRNA, 2'-F G; 2'-OMe A,C,U; 5' C6NH2; 3' idT) [Aptamer 33]",11
12,"CAGCCGUGCUAGUAUUGGCAUUGGCUAGAAGUUAGGCUG (ssRNA, 2'-F G; 2'-OMe A,C,U; 5' C6NH2; 3' idT) [Aptamer 34]",6.9
13,"CGACUUGCGGGUAUUGGCGAUGGCCCGAAGUUUGUCG (ssRNA, 2'-F G; 2'-OMe A,C,U; 5' C6NH2; 3' idT) [Aptamer 55]",~10
14,"CGCCUUGCCAGUAUUGGCGAUGGCUGGAAGUUUGGCG (ssRNA, 2'-F G; 2'-OMe A,C,U; 5' C6NH2; 3' idT) [Aptamer 60]",< 10
15,"CCGACUUGCCAGUAUUGGCGAUGGCUGGAAGUUUGUCGG (ssRNA, 2'-F G; 2'-OMe A,C,U; 5' C6NH2; 3' idT) [Aptamer 39]",3.1
16,"CCGACUUGCCAGUAUUGGCGCUGGCUGGAAGUUUGUCGG (ssRNA, 2'-F G; 2'-OMe A,C,U; 5' C6NH2; 3' idT) [Aptamer 68]",~10
17,"CCGACUUGCGGGUAUUGGCGAUGGCCCGAAGUUUGUCGG (ssRNA, 2'-F G; 2'-OMe A,C,U; 5' C6NH2; 3' idT) [Aptamer 54]",~10
18,"CUGCCUUGCGGGUAUUGGCGUUGGCCCGAAGUUUGGCUG (ssRNA, 2'-F G; 2'-OMe A,C,U; 5' C6NH2; 3' idT) [Aptamer 38]",5.5
19,"CCGACUUGCGGGUAUUGGCGUUGGCCCGAAGUUUGUCGG (ssRNA, 2'-F G; 2'-OMe A,C,U; 5' C6NH2; 3' idT) [Aptamer 59]",< 10
20,"CUGCCUUGCGGGUAUUGGCGAUGGCCCGAAGUUUGGCUG (ssRNA, 2'-F G; 2'-OMe A,C,U; 5' C6NH2; 3' idT) [Aptamer 57]",~10

# Biological target: T1, complement Factor D (fD) in …
# Test: inhibition; hemolysis
# Conditions: protein: extract; tags: endogenous fD, about 9.6 nM in 10% serum; hairpin
# Remark: another data set of the same source
# Method: (§1) In V-bottom 96-well plates the following reagents were added to a final volume of 250 μL: appropriate volume of 1× Veronal buffer with 0.1% gelatin, 100 μL aptamer, 30 μL of C1q-depleted human serum and 20 μl RBCs. This mixture was incubated for 25 minutes at room temperature, then the reaction was stopped by the addition of 5 μL of 500 mM EDTA. The plate was centrifuged for 5 minutes at 500×g at room temperature, then 100 μL of supernatant was removed and the extent of RBC lysis was determined by measuring absorbance at 405 nm.
# To this end, series of aptamer variants were designed based on the loop L2 sequences for Aptamers 15, 39, and 38 in which the sequence of S1 and S2 were altered while maintaining pairing (Table 17). These included Aptamers 90, and 94-98. Additionally, a truncate of Aptamer 38 (Aptamer 91) was designed with 3 base pairs in stem S1. The stem elements (S1 and S2) from this molecule were also used to generate Aptamer 92, which contained L2 from Aptamer 39.
row,Binder,IC50 [nM]
1,"GCCUUGAGGGUAUUGGCGAUGGCCCUAAGUUUGGC (ssRNA, 2'-F G; 2'-OMe A,C,U; 5' C6NH2; 3' idT) [Aptamer 93]",~100
2,"GCCUUGCGGGUAUUGGCGAUGGCCCGAAGUUUGGC (ssRNA, 2'-F G; 2'-OMe A,C,U; 5' C6NH2; 3' idT) [Aptamer 92]",~10
3,"CGCCUUGCCAGUAUUGGCUUAGGCUGGAAGUUUGGCG (ssRNA, 2'-F G; 2'-OMe A,C,U; 5' C6NH2; 3' idT) [Aptamer 16]",< 10
4,"GGCCUUGCCCGUAUUGGCGAUGGCGGGAAGUUUGGCC (ssRNA, 2'-F G; 2'-OMe A,C,U; 5' C6NH2; 3' idT) [Aptamer 98]",< 10

# Biological target: T2, complement Factor D (fD) (Homo sapiens, UniProt P00746 SEQ:1-228)
# T2 sequence (P00746 26-253): as the sequence (P00746 26-253) above
# Test: competition; signal reduced about 75-90% by 100 nM AFD anti-fD Fab; SB1T, 37 C
# Conditions: tags: His-tagged, immobilized on magnetic His capture beads; label: Dy650 via hybridized 2'-OMe reverse oligo
# Method: Competition binding assays were performed using a clone of an anti-fD Fab with an amino acid sequence of heavy chain variable region according to SEQ ID NO:7 and light chain variable region according to SEQ ID NO:8 (hereinafter, “AFD”) to further assess binding. For the competition assays, beads labelled with fD were first incubated with 50 nM round or individual aptamer, in 50 μl SB1T (with ssDNA and BSA), for 30 minutes at 37° C. The beads were then washed with SB1T to remove unbound aptamers and incubated with or without 100 nM AFD for 30 minutes at 37° C. Following incubation, the beads were washed three times with SB1T, and assayed by flow cytometry (FIG. 12). […] In cases where aptamers are sufficiently outcompeted by AFD as described above, such aptamers were presumed to be binding to the exosite or the self-inhibitory loop of fD.
row,Binder,binding result
1,"C3 (ssRNA, 2'-F G; 2'-OMe A, C, U) RNA: GGGAGUGUGUACGAGGCAUUAGGCCGCCACCUCGUUUGAUUGCGGUUGUUCGGCCGCGGGCGGCUUUGAUACUUGAUCGCCCUAGAAGC",binds
2,"C1 (ssRNA, 2'-F G; 2'-OMe A, C, U) RNA: GGGAGUGUGUACGAGGCAUUAGGCCGCCACCCAAACUGCAGUCCUCGUAAGUCUGCCUGGCGGCUUUGAUACUUGAUCGCCCUAGAAGC",binds
3,"C2 (ssRNA, 2'-F G; 2'-OMe A, C, U) RNA: GGGAGUGUGUACGAGGCAUUAGUCCGCCGAAGUCUUUUGGCUCGGUUUUUUCAAGGUCGGCGGCUUUGAUACUUGAUCGCCCUAGAAGC",binds

# Biological target: T1, complement Factor D (fD) in …
# Test: inhibition; hemolysis
# Conditions: protein: extract; tags: endogenous fD, about 9.6 nM in 10% serum; hairpin
# Remark: another data set of the same source
# Method: as §1
# The following nine aptamers with 2′OMe-Gs in Stem 1 (S1) were synthesized: Aptamer 76 (2′OMe-Gs substituted in Stem 1 (S1) of Aptamer 39), Aptamer 116 (Aptamer comprising loop 2 (L2) of Aptamer 39 and Stem 1 (51) of Aptamer 15 with 2′OMe-Gs in Stem 1 (S1)), Aptamer 102 (4 base pair 2′OMe-G Stem 1 (S1) variant of Aptamer 76), Aptamer 104 (4 base pair 2′OMe-G Stem 1 (S1) variant of Aptamer 74), Aptamer 106 (Aptamer 88 with 2′OMe-G Stem 1 (S1)), Aptamer 107 (4 base pair 2′OMe-G Stem 1 (S1) variant of Aptamer 88), Aptamer 108 (3 base pair 2′OMe-G Stem 1 (S1) variant of Aptamer 92), Aptamer 109 (4 base pair 2′OMe-G Stem 1 (S1) variant of Aptamer 98) and, Aptamer 99 (4 base pair 2′OMe-G Stem 1 (S1) variant of Aptamer 60).
row,Binder,IC50 [nM]
1,"CCGCCUUGCCAGUAUUGGCGAUGGCUGGAAGUUUGGCGG (ssRNA, 2'-F G except 2'-OMe G in stem 1; 2'-OMe A,C,U; 5' C6NH2; 3' idT) [Aptamer 116]",< 10
2,"GCCUUGCGGGUAUUGGCGAUGGCCCGAAGUUUGGC (ssRNA, 2'-F G except 2'-OMe G in stem 1; 2'-OMe A,C,U; 5' C6NH2; 3' idT) [Aptamer 108]",< 10
3,"CGCCUUGCCAGUAUUGGCUUAGGCUGGAAGUUUGGCG (ssRNA, 2'-F G except 2'-OMe G in stem 1; 2'-OMe A,C,U; 5' C6NH2; 3' idT) [Aptamer 104]",< 10
4,"CGCCUUGCCAGUAUUGGCGAUGGCUGGAAGUUUGGCG (ssRNA, 2'-F G except 2'-OMe G in stem 1; 2'-OMe A,C,U; 5' C6NH2; 3' idT) [Aptamer 99]",< 10
5,"CGACUUGCCAGUAUUGGCUUAGGCUGGAAGUUUGUCG (ssRNA, 2'-F G except 2'-OMe G in stem 1; 2'-OMe A,C,U; 5' C6NH2; 3' idT) [Aptamer 107]",< 10
6,"GGCCUUGCCCGUAUUGGCGAUGGCGGGAAGUUUGGCC (ssRNA, 2'-F G except 2'-OMe G in stem 1; 2'-OMe A,C,U; 5' C6NH2; 3' idT) [Aptamer 109]",< 10

# Biological target: T2, complement Factor D (fD)
# Test: SPR
# Conditions: tags: amine-coupled to dextran chip for SPR; free in esterase assay; hairpin
# Method: The binding affinity of aptamers for fD was determined by surface plasmon resonance (SPR) on a Reichert4 SPR System, where either aptamer or fD was immobilized as ligand on a solid surface and the interactant analyte was flowed in solution over the immobilized ligand (Table 20).
row,Binder,Kd [nM]
1,"GCCUUGCGGGUAUUGGCGAUGGCCCGAAGUUUGGC (ssRNA, 2'-F G except 2'-OMe G in stem 1; 2'-OMe A,C,U; 5' C6NH2; 3' idT) [Aptamer 108]",2.7
2,"CGCCUUGCCAGUAUUGGCUUAGGCUGGAAGUUUGGCG (ssRNA, 2'-F G except 2'-OMe G in stem 1; 2'-OMe A,C,U; 5' C6NH2; 3' idT) [Aptamer 104]",3.9
3,"CGCCUUGCCAGUAUUGGCGAUGGCUGGAAGUUUGGCG (ssRNA, 2'-F G except 2'-OMe G in stem 1; 2'-OMe A,C,U; 5' C6NH2; 3' idT) [Aptamer 99]",3.34
4,"CGACUUGCCAGUAUUGGCUUAGGCUGGAAGUUUGUCG (ssRNA, 2'-F G except 2'-OMe G in stem 1; 2'-OMe A,C,U; 5' C6NH2; 3' idT) [Aptamer 107]",4.2
5,"GGCCUUGCCCGUAUUGGCGAUGGCGGGAAGUUUGGCC (ssRNA, 2'-F G except 2'-OMe G in stem 1; 2'-OMe A,C,U; 5' C6NH2; 3' idT) [Aptamer 109]",1.07

# Biological target: T1, complement Factor D (fD) in …
# Test: inhibition; hemolysis, sd 0.8
# Conditions: protein: extract; tags: endogenous fD, about 9.6 nM in 10% serum; hairpin
# Method: as §1
# The potency of the PEG-aptamers P01, P04, P06, P07 and P08 compared to their non-pegylated counterparts was determined in the alternative complement-dependent hemolysis assay as described in Example 2.
row,Binder,IC50 [nM]
1,"CCGCCUUGCCAGUAUUGGCUUAGGCUGGAAGUUUGGCGG (ssRNA, as Aptamer 74 (2'-OMe G at 3,35,36,38,39; other G 2'-F; 2'-OMe A,C,U); 5' 40 kDa branched PEG via C6NH2; 3' idT) [P04 (PEGylated Aptamer 74)]",3.2

# Biological target: T2, complement Factor D (fD)
# Test: flow; bead-based direct binding
# Conditions: tags: His-tagged recombinant, bead-immobilized via His capture beads (flow) or anti-His Eu (TR-FRET); hairpin
row,Binder,Kd [nM]
1,"CCGCCUUGCCAGUAUUGGCUUAGGCUGGAAGUUUGGCGG (ssRNA, 2'-F G except 2'-OMe G at 3,12,24,27,28,35,36,38,39; 2'-OMe A,C,U; 5' C6SH; 3' idT) [Aptamer 1723]",45
2,"CCGCCUUGCCAGUAUUGGCUUAGGCUGGAAGUUUGGCGG (ssRNA, 2'-F G except 2'-OMe G at 3,12,27,35,36,38,39; 2'-OMe A,C,U; 5' C6SH; 3' idT) [Aptamer 1721]",4.5
3,"CCGCCUUGCCAGUAUUGGCUUAGGCUGGAAGUUUGGCGG (ssRNA, 2'-F G except 2'-OMe G at 3,12,27,28,35,36,38,39; 2'-OMe A,C,U; 5' C6SH; 3' idT) [Aptamer 1722]",11
